Laboratory results from EP4578877A1 (Nanjing Leads Biolabs Co., Ltd., dated 2025).
Numbering of substitutions follows the chain as printed. Names and notes keep the numbering of the source.

T1: human FAP protein expressed on 293T cells (293T-human FAP) (human, UniProt Q12884 1-760)
T1 sequence: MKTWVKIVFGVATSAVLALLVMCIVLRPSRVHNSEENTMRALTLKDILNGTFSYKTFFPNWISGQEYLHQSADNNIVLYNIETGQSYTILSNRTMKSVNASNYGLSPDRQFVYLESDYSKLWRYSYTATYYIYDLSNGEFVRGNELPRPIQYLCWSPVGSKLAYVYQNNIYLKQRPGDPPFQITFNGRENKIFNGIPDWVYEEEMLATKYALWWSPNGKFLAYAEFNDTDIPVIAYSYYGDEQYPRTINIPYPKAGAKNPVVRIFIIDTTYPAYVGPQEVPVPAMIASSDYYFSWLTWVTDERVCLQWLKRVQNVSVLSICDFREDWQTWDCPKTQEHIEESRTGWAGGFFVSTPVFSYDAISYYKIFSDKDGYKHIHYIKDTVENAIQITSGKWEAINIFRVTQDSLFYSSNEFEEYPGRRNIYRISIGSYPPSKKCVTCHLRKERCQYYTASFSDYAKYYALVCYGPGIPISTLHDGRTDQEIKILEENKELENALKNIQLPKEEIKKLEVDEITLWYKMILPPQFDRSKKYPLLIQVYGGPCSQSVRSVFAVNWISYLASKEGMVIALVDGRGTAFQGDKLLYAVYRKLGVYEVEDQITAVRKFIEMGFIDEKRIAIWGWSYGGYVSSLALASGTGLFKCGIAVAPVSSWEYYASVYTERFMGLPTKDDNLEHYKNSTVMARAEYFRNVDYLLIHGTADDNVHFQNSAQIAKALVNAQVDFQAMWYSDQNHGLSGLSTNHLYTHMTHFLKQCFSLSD

T2: cynomolgus FAP protein expressed on 293T cells (293T-cynomolgus FAP) (cynomolgus, UniProt Q12884 1-760 (human entry))
T2 sequence: T1 sequence with S29P, V261F, E417D

T3: recombinant human FAP protein (Sino Biological, Cat# 10464-H07H) (human, UniProt Q12884 26-760)
T3 construct: Bought protein
T3 sequence: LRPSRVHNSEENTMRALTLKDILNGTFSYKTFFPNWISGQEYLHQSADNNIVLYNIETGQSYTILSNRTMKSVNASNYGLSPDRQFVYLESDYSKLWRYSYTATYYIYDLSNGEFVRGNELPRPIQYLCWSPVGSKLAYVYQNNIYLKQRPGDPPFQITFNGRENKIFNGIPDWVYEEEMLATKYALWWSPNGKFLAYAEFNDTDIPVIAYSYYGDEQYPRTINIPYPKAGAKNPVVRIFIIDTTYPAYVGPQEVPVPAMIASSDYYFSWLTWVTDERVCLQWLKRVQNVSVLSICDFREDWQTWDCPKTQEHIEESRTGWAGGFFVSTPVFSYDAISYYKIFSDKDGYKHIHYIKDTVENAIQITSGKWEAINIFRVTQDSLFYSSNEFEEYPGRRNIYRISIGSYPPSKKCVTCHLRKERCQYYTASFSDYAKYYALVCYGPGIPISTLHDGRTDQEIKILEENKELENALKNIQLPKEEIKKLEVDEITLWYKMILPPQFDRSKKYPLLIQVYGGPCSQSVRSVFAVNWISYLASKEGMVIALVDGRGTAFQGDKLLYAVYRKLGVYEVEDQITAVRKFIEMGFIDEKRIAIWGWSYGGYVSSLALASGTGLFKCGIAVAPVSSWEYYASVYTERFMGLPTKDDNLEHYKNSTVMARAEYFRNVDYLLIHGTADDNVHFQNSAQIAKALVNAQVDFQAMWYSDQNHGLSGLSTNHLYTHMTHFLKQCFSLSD

B1: humanized anti-FAP antibody huF19-LG (antibody, human IgG1, kappa, V domains shown)
VH: QVQLVQSGAEVKKPGASVKVSCKASGYTFTEYTIHWVRQATGQGLEWIGGINPNNGIPNYNQKFKGRATMTVGTSISTAYMELSSLRSEDTAVYFCARRRIAYGYDEGHAMDYWGQGTLVTVSS
VL: DIQMTQSPSSLSASVGDRVTITCKSSQSLLYSRNQKNYLAWFQQKPGKAPKLLIFWASTRESGVPSRFTGSGFGTDFTLTISSLQPEDFATYYCQQYFSYPLTFGQGTKLEIKR
notes: Full-length human IgG1/kappa; expressed in ExpiCHO-S
B2: sibrotuzumab (humanized reference anti-FAP antibody) (antibody, human IgG1, kappa, V domains shown)
VH: B1 VH with A24T, G26R, T41P, G44R, A68V, M70I, G73D, I76A, F95Y
VL: DIVMTQSPDSLAVSLGERATINCKSSQSLLYSRNQKNYLAWYQQKPGQPPKLLIFWASTRESGVPDRFSGSGFGTDFTLTISSLQAEDVAVYYCQQYFSYPLTFGQGTKVEIKR
notes: Full-length human IgG1/kappa
B3: mutant humanized FAP antibody huF19-LG-NGR (antibody, human IgG1, kappa, V domains shown)
VH: B1 VH with G56R
VL: B1 VL
notes: huF19-LG with G56R (Kabat) in HCDR2; also called optimized FAP antibody

What was measured:
[1] = biological target: T1, human FAP protein expressed on 293T …; assay: flow cytometry on 293T-human FAP cells
[2] = biological target: T2, cynomolgus FAP protein expressed on …; assay: flow cytometry on 293T-cynomolgus FAP cells
[3] = biological target: recombinant human FAP protein (Sino Biological, Cat# 10464-H07H) (human) (UniProt Q12884); assay: ELISA on immobilized human FAP; antibody stored at 40 °C for 0 weeks
[4] = biological target: recombinant human FAP protein (Sino Biological, Cat# 10464-H07H) (human) (UniProt Q12884); assay: ELISA on immobilized human FAP; antibody stored at 40 °C for 2 weeks, relative to 0 weeks
[5] = biological target: recombinant human FAP protein (Sino Biological, Cat# 10464-H07H) (human) (UniProt Q12884); assay: ELISA on immobilized human FAP; antibody stored at 40 °C for 4 weeks, relative to 0 weeks
[6] = biological target: T3, recombinant human FAP protein (Sino …); assay: ELISA, human FAP protein immobilized on plate

| Binder | binding result [1] | binding result [2] | ELISA Relative activity [3] | ELISA Relative activity [4] | ELISA Relative activity [5] | binding result [6] |
| --- | --- | --- | --- | --- | --- | --- |
| B1 | binds | binds | 100% | 93.8% | 89.9% | – |
| B2 | binds | binds | – | – | – | binds |
| B3 | binds | binds | – | – | – | – |
